Laboratory results published in paper PMC7596504, “Molecular mechanism of the MORC4 ATPase activation” (Nature Communications, 2020).

Legend:
[1] = test system: MORC4 ATPaseCW (Homo sapiens); test: fluorescence polarization; conditions: EMSA DNA: 20 mM Tris-HCl pH 7.5, 150 mM NaCl, 2.5 mM MgCl2, 2 mM DTT, on ice; EMSA NCP: 25 mM Tris-HCl pH 7.5, 75 mM NaCl, 0.005% Tween 20, 10% glycerol, 4 C …
[2] = test system: MORC4 ATPase domain (Homo sapiens); test: fluorescence polarization; conditions: EMSA DNA: 20 mM Tris-HCl pH 7.5, 150 mM NaCl, 2.5 mM MgCl2, 2 mM DTT, on ice; EMSA NCP: 25 mM Tris-HCl pH 7.5, 75 mM NaCl, 0.005% Tween 20, 10% glycerol, 4 C …
LexA = test: FRET; conditions: EMSA DNA: 20 mM Tris-HCl pH 7.5, 150 mM NaCl, 2.5 mM MgCl2, 2 mM DTT, on ice, EMSA NCP: 25 mM Tris-HCl pH 7.5, 75 mM NaCl, 0.005% Tween 20, 10% glycerol, 4 C …
Gal4 DNA-binding domain = test: FRET; conditions: EMSA DNA: 20 mM Tris-HCl pH 7.5, 150 mM NaCl, 2.5 mM MgCl2, 2 mM DTT, on ice, EMSA NCP: 25 mM Tris-HCl pH 7.5, 75 mM NaCl, 0.005% Tween 20, 10% glycerol, 4 C …

Substance NCP147 has a K half [1] of 400 nM and a K half [2] of 2300 nM.
With NCP147 LexA the K half (LexA; 1 uM MORC4 ATPaseCW) was 2400 nM and the K half (LexA; no MORC4) was 900 nM.
In the case of NCP207, the K half [1] is reported as 200 nM and the K half [2] is reported as 500 nM.
NCP252 Gal4 gave a K half (Gal4 DNA-binding domain; no MORC4) of 20 nM, a K half (Gal4 DNA-binding domain; saturating MORC4 ATPaseCW, 0.3 mM ATP) of 100 nM and a K half (Gal4 DNA-binding domain; saturating MORC4 ATPaseCW, no ATP) of 40 nM.
